± gives the uncertainty stated by the source.
Assay: amyloid nucleation score (Sup35N fusion, yeast selection) (log enrichment); library NNK1; higher = more nucleation; inactive = no reads after selection
How it was run: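 The nucleation score is the log enrichment of output over input reads, calculated with DiMSum and centred on the mode score of non-aggregating sequences. Sequences with under 100 input reads were excluded. Reads came from Illumina sequencing of plasmid inserts from psi-negative yeast expressing Sup35N fused to peptides of 20 random codons, induced 24 hours with 100 μM copper sulfate and grown 7 days at 30°C without adenine and uracil.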
ECQCFDQICEQLNSYRDQFS showed an amyloid nucleation score of 0.105 ± 0.97. Work on SHVGSYSWVCSRLARIGCER yielded an amyloid nucleation score of -0.703 ± 0.46. In the case of TCIIFIYNSWSSLQPFMSGM, the amyloid nucleation score is reported as 2.65 ± 0.21. WCHGHYHSSNEMSTI showed an amyloid nucleation score of 1.37 ± 0.69. Substance KVKNRAFWPHMSLTYAMVPP has an amyloid nucleation score of 0.333 ± 0.39. EFMYYL gave an amyloid nucleation score of -0.979 ± 1.9. For IYDIEEDLCSVSVSGKESWV, the amyloid nucleation score was -0.307 ± 0.47. WSGFFFAGLWVVLCVEGGAC showed an amyloid nucleation score of 0.192 ± 0.88. VFLIAWGLFSRMC gave an amyloid nucleation score of 4.54 ± 0.11. For FDGVRARDALFSGCL, the amyloid nucleation score was -0.705 ± 0.59. With SIFADGLVVGLGPSLYSVFF the amyloid nucleation score was 0.175 ± 0.54. In the case of IAGRRPALYRVWNSRCSLLN, the amyloid nucleation score is reported as 0.014 ± 0.49. ERRDVRIYKSCGLGHVFYEG gave an amyloid nucleation score of 4.91 ± 0.056. ISNWDVLSCMTQDIGVMTLL gave an amyloid nucleation score of -0.092 ± 0.82. FVLLRIRHRFFWGSCLNPFQ gave an amyloid nucleation score of 1.12 ± 0.26. Work on RVVSCMTSRMLWSMRDPIYY yielded an amyloid nucleation score of 0.217 ± 0.41. VWSGEE gave an amyloid nucleation score of -0.344 ± 0.38. SVNKSSKVFTELANVHERAL gave an amyloid nucleation score of 0.136 ± 0.66. For TMPNSFRWCLNGRVRRDRFC, the amyloid nucleation score was -0.215 ± 0.97. For TLKHEQAREGFFAM, the amyloid nucleation score was -0.053 ± 0.56. With GKENSVTGHRGYSDVAVGMQ the amyloid nucleation score was 0.286 ± 1.4. In the case of SDVSYLVNSSNVGLWHL, the amyloid nucleation score is reported as 0.467 ± 0.4. Substance RLVEQFRGMLLWY has an amyloid nucleation score of -0.673 ± 0.64. For NRLNTTDWYSI, the amyloid nucleation score was -0.342 ± 0.74. Substance FTKGNYCSGLLGSSSRWTPF has an amyloid nucleation score of 0.926 ± 0.74. With FEGALRLTIRSQKD the amyloid nucleation score was 0.574 ± 0.57. For NDWIFD, the amyloid nucleation score was “inactive”. For LVYRCASRRVSNSFMLCW, the amyloid nucleation score was -0.542 ± 0.62. With HRFDW the amyloid nucleation score was 1.07 ± 0.48. For FVYNTSFLYSVCNNWAKRSP, the amyloid nucleation score was 7.758 ± 0.053. DMQSEGDRGDHRGSRDCRS gave an amyloid nucleation score of 0.983 ± 1. For IDVFEITSKSFAARGAQFVH, the amyloid nucleation score was -1.97 ± 1.3. In the case of YEFTYLWNNKVLLGLCCYGG, the amyloid nucleation score is reported as 4 ± 0.13. With WNYIEGASFSRMGEASNAPG the amyloid nucleation score was -0.944 ± 1.2. For CFRFDYVGTYKHMPFR, the amyloid nucleation score was 4.02 ± 0.16. In the case of FILIYTAPFIGGLVGLGDGH, the amyloid nucleation score is reported as “inactive”. Work on WFMVVSRNMFCV yielded an amyloid nucleation score of 0.456 ± 1.1. Work on NAYLKVIYQRSFGAPNRH yielded an amyloid nucleation score of -0.1 ± 0.69. For NMIVKSATEAANSP, the amyloid nucleation score was 1.25 ± 0.56. KTFLHSTSYNNKKRWMSLRQ showed an amyloid nucleation score of 0.485 ± 0.66. For HCTRINVHFYNIYTVLVSFS, the amyloid nucleation score was 5.33 ± 0.073. For VPENLKRMRVRAVSLGMSGE, the amyloid nucleation score was 1.44 ± 0.5. In the case of PICANWLMHTVMINSSSGRG, the amyloid nucleation score is reported as 0.27 ± 0.32. In the case of SIRLREL, the amyloid nucleation score is reported as 1.61 ± 0.76. Substance CHMKYFREVVATV has an amyloid nucleation score of 0.186 ± 1.1. GLGDVKNHEFNHVDAEGSGR showed an amyloid nucleation score of -0.741 ± 0.83. In the case of AYNFRSRRWMLFGYNWVSAP, the amyloid nucleation score is reported as 1.59 ± 0.51. With FLNRYICKFDKVSQHGVRLW the amyloid nucleation score was 0.261 ± 0.84. DLSNNRWWFNRFRALHYKSS showed an amyloid nucleation score of -0.358 ± 0.85. In the case of CFWRNFDRGEAS, the amyloid nucleation score is reported as 0.94 ± 0.97. LSMSCENFHLTQSSEGCSRV gave an amyloid nucleation score of 0.19 ± 0.51. Substance TTCVELYVWRGWRGAGGTGV has an amyloid nucleation score of -1.41 ± 2.4. Work on ADIPCQNCVSYVRYFGLNVI yielded an amyloid nucleation score of -0.094 ± 0.48. Substance CVNIRNQKQLSFAGLVDLSV has an amyloid nucleation score of 0.358 ± 0.59. Work on RFFGKYSTEGLNL yielded an amyloid nucleation score of 0.992 ± 0.76. In the case of WVVVDTLVRTGGCCWGYWKT, the amyloid nucleation score is reported as 1.91 ± 0.27. GSRFPFLVVDMCSSELVKR gave an amyloid nucleation score of 0.577 ± 0.63. LTYLMWRRYSNIFQTSCSCL gave an amyloid nucleation score of 0.499 ± 0.59. With LFRFCTIILLAYGLSLCNDI the amyloid nucleation score was “inactive”. In the case of AYCLRN, the amyloid nucleation score is reported as 0.211 ± 0.68. In the case of YSRLRVCTNSAMLELGFS, the amyloid nucleation score is reported as 1.03 ± 0.26. Substance KRMDKPWTPGYTAMHWVDNM has an amyloid nucleation score of 0.612 ± 0.52. For MDKLMSMELLSFLGNRSVHV, the amyloid nucleation score was “inactive”. In the case of ADDGCSRNVCQTLYMSFLVN, the amyloid nucleation score is reported as -0.072 ± 0.35. Work on NSLLGYLYSYVVFYREHIVI yielded an amyloid nucleation score of -0.326 ± 1.2. In the case of DYRTCSCF, the amyloid nucleation score is reported as “inactive”. For HRSVGSRECRSSSEFYVLR, the amyloid nucleation score was 3.77 ± 0.088. Substance LNNHETFFGFVDVSGSAIS has an amyloid nucleation score of 0.272 ± 0.26. Substance PNSYASVHSNHKDIREAMYL has an amyloid nucleation score of 0.021 ± 0.44. EHLRFKKANNVLYVNESSSV showed an amyloid nucleation score of -1.59 ± 1.3. Work on VHFQYFLMLKLAQFVVVWNK yielded an amyloid nucleation score of 0.669 ± 0.84. CVIQVVLYLV gave an amyloid nucleation score of 3.83 ± 0.059. VPPASQISGPWARLSEMVSH showed an amyloid nucleation score of -1.12 ± 0.7. With YYFIFII the amyloid nucleation score was 4.79 ± 0.074. Substance NKCIAKDGDMES has an amyloid nucleation score of -0.015 ± 0.23. For NYLGRVLFFYNWFDKQYRSK, the amyloid nucleation score was 5.878 ± 0.048. Substance LFNYPS has an amyloid nucleation score of -0.948 ± 1.1. In the case of DRMLLMVCIVWNRFVKGFPH, the amyloid nucleation score is reported as “inactive”. Work on DVGCLCNNMHMILILLNYRV yielded an amyloid nucleation score of 0.446 ± 0.44. Substance NIGIMNFIVLAFLQ has an amyloid nucleation score of 6.529 ± 0.062. SLGIHPHVDKLLYRRFQLDY showed an amyloid nucleation score of -0.567 ± 0.77. CDSVV gave an amyloid nucleation score of -0.221 ± 0.73. Work on HMNRVSGVMVVLSRGLAGMN yielded an amyloid nucleation score of 2.67 ± 0.23. GTFALIN showed an amyloid nucleation score of -1.2 ± 0.68. Substance VCSSLFSSCPL has an amyloid nucleation score of 0.735 ± 0.37.
